Assay results taken from the supplement of paper PMC9233669.
This sample holds only a part of the variants without activity.

Tested on: biotinyl-Phe-oxazolone
Experiment: self-aminoacylation, catalytic enhancement (BFO) (fold over background); higher = more active; k-Seq, kA / k0A0; sequences stand for … in GGGAAUGGAUCCACAUCUACGAAUUC…UUCACUGCAGACUUGACGAAGCUG
In short: (§1)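 Mutagenized RNA pools with a 21-nt variable region (0.43 μM) reacted with each biotinyl-aminoacyl-oxazolone at 2–1250 μM. Reactions ran in 50 μL HEPES/NaCl/KCl/MgCl2/CaCl2 buffer with 5% acetonitrile, pH 6.9–7.0, for 90 minutes at room temperature. Streptavidin-captured RNA was quantified by triplicate qPCR and Illumina sequencing, and per-sequence fraction reacted was fit to a pseudo-first-order model with 1000 bootstraps. Catalytic enhancement is median kA divided by the uncatalyzed rate, the low-activity peak of a bimodal Gaussian fit.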

**Q.** “AAACUUCAAACAAUCGGUCUG [Fam1A.1 aminoacylation ribozyme variant]” was tested. Which self-aminoacylation did it give?
**A.** 30.9

**Q.** With “AAGCUUCCUAAUAGUCGCAAG [Fam3.1 aminoacylation ribozyme variant]” as the sequence, how does the self-aminoacylation read?
**A.** 2.32

**Q.** “AAGCUUGAUAAUAGUCGCAAG [Fam3.1 aminoacylation ribozyme variant]” was tested. Which self-aminoacylation did it give?
**A.** 2.72

**Q.** Which self-aminoacylation does the source give for “AAGCUUGCUAAUAGUUGCAAG [Fam3.1 aminoacylation ribozyme variant]” here?
**A.** 2.19

**Q.** For “AAGGUUGCCAAUAGUCGCAAG [Fam3.1 aminoacylation ribozyme variant]”, which self-aminoacylation is on record?
**A.** 2.4

**Q.** For “AAGGUUGCUAAUAGUCGCACG [Fam3.1 aminoacylation ribozyme variant]”, which self-aminoacylation is on record?
**A.** 2.39

**Q.** How did the self-aminoacylation turn out when “AAGGUUGCUAAUAGUCGCAGG [Fam3.1 aminoacylation ribozyme variant]” was run?
**A.** 3.23

**Q.** Which self-aminoacylation does the source give for “AAGUAUGCUAAUAGUCGCAAG [Fam3.1 aminoacylation ribozyme variant]” here?
**A.** 22.9

**Q.** How did the self-aminoacylation turn out when “AAGUUAGCUAAUAGUCGUAAG [Fam3.1 aminoacylation ribozyme variant]” was run?
**A.** 14

**Q.** For “AAGUUCGCUAAUAGUCUCAAG [Fam3.1 aminoacylation ribozyme variant]”, which self-aminoacylation is on record?
**A.** 2.72

**Q.** How did the self-aminoacylation turn out when “AAGUUCGGUAAUAGUCGCAAG [Fam3.1 aminoacylation ribozyme variant]” was run?
**A.** 3.24

**Q.** With “AAGUUCUCUAAUAGUCGCAAG [Fam3.1 aminoacylation ribozyme variant]” as the sequence, how does the self-aminoacylation read?
**A.** 3.34

**Q.** “AAGUUUACUAAUAGUCGAAAG [Fam3.1 aminoacylation ribozyme variant]” was tested. Which self-aminoacylation did it give?
**A.** 2.51

**Q.** How did the self-aminoacylation turn out when “AAGUUUCCUAAUAGUUGCAAG [Fam3.1 aminoacylation ribozyme variant]” was run?
**A.** 2.63

**Q.** For “AAGUUUCCUAAUGGUCGCAAG [Fam3.1 aminoacylation ribozyme variant]”, which self-aminoacylation is on record?
**A.** 2.62

**Q.** “AAGUUUGCUAACAGCCGCAAG [Fam3.1 aminoacylation ribozyme variant]” was tested. Which self-aminoacylation did it give?
**A.** 3.09

**Q.** Which self-aminoacylation does the source give for “AAGUUUGCUAAUGGUCGCAAC [Fam3.1 aminoacylation ribozyme variant]” here?
**A.** 6.25

**Q.** For “AAGUUUGCUGACAGUCGCAAG [Fam3.1 aminoacylation ribozyme variant]”, which self-aminoacylation is on record?
**A.** 2.12

**Q.** Which self-aminoacylation does the source give for “AAGUUUGCUUAUAGUCGCAAA [Fam3.1 aminoacylation ribozyme variant]” here?
**A.** 2.38

**Q.** With “AAGUUUUCCAAUAGUCGCAAG [Fam3.1 aminoacylation ribozyme variant]” as the sequence, how does the self-aminoacylation read?
**A.** 2.43

**Q.** How did the self-aminoacylation turn out when “AAGUUUUCUAAUAGUCGCAAU [Fam3.1 aminoacylation ribozyme variant]” was run?
**A.** 2.37

**Q.** With “AAGUUUUCUCAUAGUCGCAAG [Fam3.1 aminoacylation ribozyme variant]” as the sequence, how does the self-aminoacylation read?
**A.** 3.59

**Q.** With “AAUACCCUGGUCAUCGAGUUA [Fam2.1 aminoacylation ribozyme variant]” as the sequence, how does the self-aminoacylation read?
**A.** 2.17

**Q.** How did the self-aminoacylation turn out when “ACACACUUCAAGCGAUCGGUC [Fam1B.1 aminoacylation ribozyme variant]” was run?
**A.** 2.18

**Q.** For “ACGUUUGCUAAUAGUCGCAGG [Fam3.1 aminoacylation ribozyme variant]”, which self-aminoacylation is on record?
**A.** 3.87

**Q.** “ACGUUUGCUAAUAGUCGGAAG [Fam3.1 aminoacylation ribozyme variant]” was tested. Which self-aminoacylation did it give?
**A.** 3.98

**Q.** How did the self-aminoacylation turn out when “AGGUUUGCUUAUAGUCGCAAG [Fam3.1 aminoacylation ribozyme variant]” was run?
**A.** 2.89

**Q.** For “AGGUUUUCUAAUAGUCGCAAG [Fam3.1 aminoacylation ribozyme variant]”, which self-aminoacylation is on record?
**A.** 2.83

**Q.** For “AGUACCCUGGUCAUCGAGUUA [Fam2.1 aminoacylation ribozyme variant]”, which self-aminoacylation is on record?
**A.** 2.58

**Q.** For “AUUAACCUAGGUCAUCGUGUG [Fam2.2 aminoacylation ribozyme variant]”, which self-aminoacylation is on record?
**A.** 3.17

**Q.** “AUUACCCUGGUCAGCGAUUGA [Fam2.1 aminoacylation ribozyme variant]” was tested. Which self-aminoacylation did it give?
**A.** 2.52

**Q.** For “AUUACCCUGGUCAUCGUGUGG [Fam2.1 aminoacylation ribozyme variant]”, which self-aminoacylation is on record?
**A.** 2.9

**Q.** Which self-aminoacylation does the source give for “AUUACCCUGGUCGUCGAGUGG [Fam2.1 aminoacylation ribozyme variant]” here?
**A.** 2.7

**Q.** How did the self-aminoacylation turn out when “AUUAGCCUCGUCAUCGAGUGA [Fam2.1 aminoacylation ribozyme variant]” was run?
**A.** 2.19

**Q.** Which self-aminoacylation does the source give for “AUUAGCCUGGUCAUCGAGUGC [Fam2.1 aminoacylation ribozyme variant]” here?
**A.** 2.04

**Q.** With “AUUCAACUAGGUCAUCGUGUG [Fam2.2 aminoacylation ribozyme variant]” as the sequence, how does the self-aminoacylation read?
**A.** 5.52

**Q.** For “AUUCAACUAGGUCGUCGGGUG [Fam2.2 aminoacylation ribozyme variant]”, which self-aminoacylation is on record?
**A.** 6.9

**Q.** Which self-aminoacylation does the source give for “AUUCACCUACGUCAUCGGCUG [Fam2.2 aminoacylation ribozyme variant]” here?
**A.** 2.24

**Q.** With “AUUCACCUACUUCAUCGGGUG [Fam2.2 aminoacylation ribozyme variant]” as the sequence, how does the self-aminoacylation read?
**A.** 3.44

**Q.** How did the self-aminoacylation turn out when “AUUCACCUAGCUCGUCGGGUG [Fam2.2 aminoacylation ribozyme variant]” was run?
**A.** 4.07

**Q.** “AUUCACCUAGGUCAUCGUGCG [Fam2.2 aminoacylation ribozyme variant]” was tested. Which self-aminoacylation did it give?
**A.** 5.13

**Q.** How did the self-aminoacylation turn out when “AUUCACCUAGGUCCUCGUGUG [Fam2.2 aminoacylation ribozyme variant]” was run?
**A.** 5.79

**Q.** Which self-aminoacylation does the source give for “AUUCACCUAGGUGAUCGGGUC [Fam2.2 aminoacylation ribozyme variant]” here?
**A.** 2.84

**Q.** With “AUUCACCUAGUUCAUCGGGAG [Fam2.2 aminoacylation ribozyme variant]” as the sequence, how does the self-aminoacylation read?
**A.** 2.23

**Q.** “AUUCACCUAGUUCAUCGGGUU [Fam2.2 aminoacylation ribozyme variant]” was tested. Which self-aminoacylation did it give?
**A.** 5.74

**Q.** Which self-aminoacylation does the source give for “AUUCAGCUAGGUCAUCGGAUG [Fam2.2 aminoacylation ribozyme variant]” here?
**A.** 2.91

**Q.** For “CAGUUUCCUAAUAGUCGCAAG [Fam3.1 aminoacylation ribozyme variant]”, which self-aminoacylation is on record?
**A.** 2.17

**Q.** How did the self-aminoacylation turn out when “CCACACUUCAAACAACCGGUC [Fam1B.1 aminoacylation ribozyme variant]” was run?
**A.** 2.26

**Q.** “CCACACUUCAAGAAUUCGGUC [Fam1B.1 aminoacylation ribozyme variant]” was tested. Which self-aminoacylation did it give?
**A.** 7.52

**Q.** How did the self-aminoacylation turn out when “CCACUUCAAACAAUCGAUCUG [Fam1A.1 aminoacylation ribozyme variant]” was run?
**A.** 4.61

**Q.** For “CCCCACUACAAGCAAUCGGUC [Fam1B.1 aminoacylation ribozyme variant]”, which self-aminoacylation is on record?
**A.** 2.24

**Q.** Which self-aminoacylation does the source give for “CCCCACUUCAAGCAAUAGGUC [Fam1B.1 aminoacylation ribozyme variant]” here?
**A.** 2.02

**Q.** Which self-aminoacylation does the source give for “CCUCACUUCAAGCAAUCGGAC [Fam1B.1 aminoacylation ribozyme variant]” here?
**A.** 2.16

**Q.** For “CUAAAUCAAACAAUCGGUCUG [Fam1A.1 aminoacylation ribozyme variant]”, which self-aminoacylation is on record?
**A.** 3.19

**Q.** “CUAAUUCAAAUAAUCGGUCUG [Fam1A.1 aminoacylation ribozyme variant]” was tested. Which self-aminoacylation did it give?
**A.** 2.58

**Q.** For “CUACAUCAAACAAGCGGUCUG [Fam1A.1 aminoacylation ribozyme variant]”, which self-aminoacylation is on record?
**A.** 4.11

**Q.** For “CUACGUCAAACAAUUGGUCUG [Fam1A.1 aminoacylation ribozyme variant]”, which self-aminoacylation is on record?
**A.** 2.06

**Q.** With “CUACGUCAAACGAUCGGUCUG [Fam1A.1 aminoacylation ribozyme variant]” as the sequence, how does the self-aminoacylation read?
**A.** 3.76

**Q.** For “CUACUUCAAACAAUCUGUCUG [Fam1A.1 aminoacylation ribozyme variant]”, which self-aminoacylation is on record?
**A.** 3.23

**Q.** For “CUACUUCAGACAUUCGGUCUG [Fam1A.1 aminoacylation ribozyme variant]”, which self-aminoacylation is on record?
**A.** 6.22

**Q.** For “CUACUUGAAACACUCGGUCUG [Fam1A.1 aminoacylation ribozyme variant]”, which self-aminoacylation is on record?
**A.** 3.53

**Q.** With “CUUCAUCAAACAAUCGGUCUG [Fam1A.1 aminoacylation ribozyme variant]” as the sequence, how does the self-aminoacylation read?
**A.** 2.05

**Q.** How did the self-aminoacylation turn out when “UAGUUGGCUAAUAGUCGCAAG [Fam3.1 aminoacylation ribozyme variant]” was run?
**A.** 2.38

**Q.** “UAGUUUGCUCAUAGUCGCAAG [Fam3.1 aminoacylation ribozyme variant]” was tested. Which self-aminoacylation did it give?
**A.** 2.67

**Q.** For “UUUACCCUGGUCGUCGAGUGA [Fam2.1 aminoacylation ribozyme variant]”, which self-aminoacylation is on record?
**A.** 5.7

Tested on: biotinyl-Trp-oxazolone
Experiment: self-aminoacylation, catalytic enhancement (BWO) (fold over background); higher = more active; k-Seq, kA / k0A0; sequences stand for … in GGGAAUGGAUCCACAUCUACGAAUUC…UUCACUGCAGACUUGACGAAGCUG
In short: as §1

**Q.** “AAACUUCAAACAAUCGGUCUG [Fam1A.1 aminoacylation ribozyme variant]” was tested. Which self-aminoacylation did it give?
**A.** 18.7

**Q.** Which self-aminoacylation does the source give for “AAGAUUGCUAAUAGCCGCAAG [Fam3.1 aminoacylation ribozyme variant]” here?
**A.** 2.47

**Q.** Which self-aminoacylation does the source give for “AAGCUUGAUAAUAGUCGCAAG [Fam3.1 aminoacylation ribozyme variant]” here?
**A.** 2.02

**Q.** For “AAGGUUGCUAAUAGUCGCAGG [Fam3.1 aminoacylation ribozyme variant]”, which self-aminoacylation is on record?
**A.** 2.28

**Q.** Which self-aminoacylation does the source give for “AAGUAUGCUAAUAGUCGCAAG [Fam3.1 aminoacylation ribozyme variant]” here?
**A.** 6.46

**Q.** With “AAGUAUGCUAAUAGUCGCACG [Fam3.1 aminoacylation ribozyme variant]” as the sequence, how does the self-aminoacylation read?
**A.** 2.03

**Q.** Which self-aminoacylation does the source give for “AAGUUAGCUAAUAGUCGUAAG [Fam3.1 aminoacylation ribozyme variant]” here?
**A.** 3.54

**Q.** “AAGUUCUCUAAUAGUCGCAAG [Fam3.1 aminoacylation ribozyme variant]” was tested. Which self-aminoacylation did it give?
**A.** 2.07

**Q.** How did the self-aminoacylation turn out when “AAGUUGGCUAAUAGUCUCAAG [Fam3.1 aminoacylation ribozyme variant]” was run?
**A.** 2.27

**Q.** For “AAGUUUGCGAAUAUUCGCAAG [Fam3.1 aminoacylation ribozyme variant]”, which self-aminoacylation is on record?
**A.** 2.71

**Q.** For “AAGUUUGCUAGUAGUCGCAAA [Fam3.1 aminoacylation ribozyme variant]”, which self-aminoacylation is on record?
**A.** 2.13

**Q.** Which self-aminoacylation does the source give for “AAUCACCUAGGUCAUAGGGUG [Fam2.2 aminoacylation ribozyme variant]” here?
**A.** 2.15

**Q.** Which self-aminoacylation does the source give for “AAUCACCUAGGUCAUCAGGUG [Fam2.2 aminoacylation ribozyme variant]” here?
**A.** 2.18

**Q.** How did the self-aminoacylation turn out when “AUUACGCUGGUCAUCGAGCGA [Fam2.1 aminoacylation ribozyme variant]” was run?
**A.** 2.16

**Q.** For “AUUCACCUAGGUUAUCAGGUG [Fam2.2 aminoacylation ribozyme variant]”, which self-aminoacylation is on record?
**A.** 2.12

**Q.** “CGACUUCAAACAACCGGUCUG [Fam1A.1 aminoacylation ribozyme variant]” was tested. Which self-aminoacylation did it give?
**A.** 2.13

**Q.** With “GUACUUUAAACAAUCGGUCUG [Fam1A.1 aminoacylation ribozyme variant]” as the sequence, how does the self-aminoacylation read?
**A.** 2.08
